Tests used:
[1] = biological target: associated or linker proteins (plasma proteins of the approximately 320 kDa complex); experiment: SEC
[2] = biological target: Complement C3 (purified, native) (UniProt P01024); experiment: pull-down
[3] = biological target: Complement C3 (purified, native) (UniProt P01024); experiment: flow cytometry on coated beads

percent of AAT in the complex [1]	Western blot densitometry of bound AAT (C3-coated beads vs control beads) [2]	fluorescence intensity of binding (h-AAT vs r-AAT) [3]	Substance
13%			Alpha-1 antitrypsin (from UniProt P01009 25-418) (natural protein)
	2.7 AU	1.5 AU	plasma purified human AAT (natural protein)

Source: article PMC7231451
